Targets include CSK (UniProt P41240 1-450, limits assumed); PLK1 Polo-like kinase 1 (UniProt P53350 1-603, limits assumed); PIM1 Pim-1 oncogene (UniProt P11309 1-313, limits assumed); CAMK2A (CaMKII alpha) (UniProt Q9UQM7 1-478, limits assumed); ABL1 T315I (UniProt P00519 1-1130, limits assumed).
Assay in all cases: cell-based or functional assay
In test [1] the target is RPS6KA3 (RSK2) Ribosomal protein S6 kinase, 90 kDa, polypeptide 3 (UniProt P51812 1-740, limits assumed).
Test [2] deals with RPS6KA4 (MSK2) Ribosomal protein S6 kinase, 90 kDa, polypeptide 4 (UniProt O75676 1-772, limits assumed).
Sequence of RPS6KA4 (MSK2) Ribosomal protein S6 kinase, 90 kDa, polypeptide 4 (O75676 whole entry): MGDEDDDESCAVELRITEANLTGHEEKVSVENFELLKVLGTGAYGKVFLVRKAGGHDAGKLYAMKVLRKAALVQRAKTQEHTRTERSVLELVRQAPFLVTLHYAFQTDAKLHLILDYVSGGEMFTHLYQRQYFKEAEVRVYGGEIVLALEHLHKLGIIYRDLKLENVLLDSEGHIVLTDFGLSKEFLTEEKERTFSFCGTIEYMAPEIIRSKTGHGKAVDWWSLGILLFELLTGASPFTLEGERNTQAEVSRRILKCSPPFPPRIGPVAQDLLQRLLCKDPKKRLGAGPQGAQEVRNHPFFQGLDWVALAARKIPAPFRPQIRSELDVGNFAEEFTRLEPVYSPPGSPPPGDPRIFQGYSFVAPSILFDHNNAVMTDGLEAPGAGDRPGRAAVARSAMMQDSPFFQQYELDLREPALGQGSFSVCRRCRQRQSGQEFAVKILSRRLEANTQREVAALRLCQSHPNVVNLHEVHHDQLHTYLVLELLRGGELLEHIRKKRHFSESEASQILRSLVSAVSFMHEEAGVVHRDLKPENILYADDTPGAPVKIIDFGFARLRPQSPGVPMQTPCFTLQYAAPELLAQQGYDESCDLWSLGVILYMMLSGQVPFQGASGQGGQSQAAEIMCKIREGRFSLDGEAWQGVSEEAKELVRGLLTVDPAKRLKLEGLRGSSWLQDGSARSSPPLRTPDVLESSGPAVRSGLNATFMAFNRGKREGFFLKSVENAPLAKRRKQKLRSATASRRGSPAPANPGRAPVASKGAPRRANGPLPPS
The target of test [3] is SYK Spleen tyrosine kinase (UniProt P43405 1-635, limits assumed).
The target in test [4] is MINK1 Misshapen-like kinase 1 (UniProt Q8N4C8 1-320, limits assumed).
Sequence of MINK1 Misshapen-like kinase 1 (Q8N4C8 1-320 limits assumed): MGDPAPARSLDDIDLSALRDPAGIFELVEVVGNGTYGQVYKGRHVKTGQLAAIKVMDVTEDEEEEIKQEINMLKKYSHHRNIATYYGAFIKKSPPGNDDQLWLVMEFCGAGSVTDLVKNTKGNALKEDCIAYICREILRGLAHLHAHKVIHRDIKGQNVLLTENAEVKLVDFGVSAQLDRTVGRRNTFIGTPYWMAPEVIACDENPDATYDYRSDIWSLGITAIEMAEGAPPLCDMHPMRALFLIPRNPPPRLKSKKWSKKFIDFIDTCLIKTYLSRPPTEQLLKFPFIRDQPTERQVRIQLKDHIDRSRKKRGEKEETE
For the next test, the target named is T1, BRSK1 (SAD1) (UniProt Q8TDC3 1-778, limits assumed).
T1 sequence (looked up): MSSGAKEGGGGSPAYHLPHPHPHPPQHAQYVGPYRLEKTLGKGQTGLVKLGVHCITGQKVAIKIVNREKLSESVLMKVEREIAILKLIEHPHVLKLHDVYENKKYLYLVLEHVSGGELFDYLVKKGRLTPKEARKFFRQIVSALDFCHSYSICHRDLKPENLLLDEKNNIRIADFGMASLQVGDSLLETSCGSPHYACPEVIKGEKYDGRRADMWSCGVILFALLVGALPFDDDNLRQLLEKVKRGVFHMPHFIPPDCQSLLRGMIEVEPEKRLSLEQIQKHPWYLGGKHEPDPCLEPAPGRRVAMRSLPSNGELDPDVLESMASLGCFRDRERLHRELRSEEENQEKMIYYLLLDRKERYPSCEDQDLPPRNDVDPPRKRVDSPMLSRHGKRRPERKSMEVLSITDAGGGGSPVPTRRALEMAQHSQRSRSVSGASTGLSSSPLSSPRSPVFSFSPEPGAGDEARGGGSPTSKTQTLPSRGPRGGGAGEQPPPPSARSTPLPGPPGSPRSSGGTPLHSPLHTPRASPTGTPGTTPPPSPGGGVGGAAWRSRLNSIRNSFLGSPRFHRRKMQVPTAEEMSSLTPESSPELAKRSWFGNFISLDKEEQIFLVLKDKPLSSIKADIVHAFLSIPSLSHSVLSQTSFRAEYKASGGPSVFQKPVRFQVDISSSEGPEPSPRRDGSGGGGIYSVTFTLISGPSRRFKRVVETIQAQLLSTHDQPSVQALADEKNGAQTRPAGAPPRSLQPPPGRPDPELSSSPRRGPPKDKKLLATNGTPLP

The target in a further test is T2, PRKX (UniProt P51817 1-358, limits assumed).
T2 sequence (looked up): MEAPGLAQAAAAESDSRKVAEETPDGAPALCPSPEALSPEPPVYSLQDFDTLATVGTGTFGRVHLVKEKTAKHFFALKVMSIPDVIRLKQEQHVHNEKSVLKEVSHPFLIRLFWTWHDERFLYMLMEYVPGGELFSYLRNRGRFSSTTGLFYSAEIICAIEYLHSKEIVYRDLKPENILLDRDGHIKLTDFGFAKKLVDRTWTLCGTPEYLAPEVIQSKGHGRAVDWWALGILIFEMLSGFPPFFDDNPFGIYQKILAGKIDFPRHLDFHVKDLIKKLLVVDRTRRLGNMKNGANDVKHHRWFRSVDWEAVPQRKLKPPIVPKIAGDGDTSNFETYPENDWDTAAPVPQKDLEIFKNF

Test [5] concerns the target T3, CAMK4 (CaMKIV) Calcium/calmodulin-dependent protein kinase IV (UniProt Q16566 1-473, limits assumed).
T3 sequence (looked up): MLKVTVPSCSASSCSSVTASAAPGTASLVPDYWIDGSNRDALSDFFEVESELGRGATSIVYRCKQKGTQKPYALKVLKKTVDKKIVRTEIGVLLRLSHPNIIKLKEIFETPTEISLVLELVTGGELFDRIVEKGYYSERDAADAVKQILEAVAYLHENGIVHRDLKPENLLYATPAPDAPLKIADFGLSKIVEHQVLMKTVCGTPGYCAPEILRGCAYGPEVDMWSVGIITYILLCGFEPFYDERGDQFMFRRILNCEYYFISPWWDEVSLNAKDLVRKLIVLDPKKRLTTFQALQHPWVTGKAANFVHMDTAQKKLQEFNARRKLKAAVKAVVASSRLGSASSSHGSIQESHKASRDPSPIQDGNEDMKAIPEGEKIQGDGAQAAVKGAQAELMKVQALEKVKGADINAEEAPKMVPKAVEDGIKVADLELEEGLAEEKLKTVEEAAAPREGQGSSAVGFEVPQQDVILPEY

A further test addresses T4, PDK1 (human (printed as (h)), UniProt O15530 1-556, limits assumed).
T4 sequence (looked up): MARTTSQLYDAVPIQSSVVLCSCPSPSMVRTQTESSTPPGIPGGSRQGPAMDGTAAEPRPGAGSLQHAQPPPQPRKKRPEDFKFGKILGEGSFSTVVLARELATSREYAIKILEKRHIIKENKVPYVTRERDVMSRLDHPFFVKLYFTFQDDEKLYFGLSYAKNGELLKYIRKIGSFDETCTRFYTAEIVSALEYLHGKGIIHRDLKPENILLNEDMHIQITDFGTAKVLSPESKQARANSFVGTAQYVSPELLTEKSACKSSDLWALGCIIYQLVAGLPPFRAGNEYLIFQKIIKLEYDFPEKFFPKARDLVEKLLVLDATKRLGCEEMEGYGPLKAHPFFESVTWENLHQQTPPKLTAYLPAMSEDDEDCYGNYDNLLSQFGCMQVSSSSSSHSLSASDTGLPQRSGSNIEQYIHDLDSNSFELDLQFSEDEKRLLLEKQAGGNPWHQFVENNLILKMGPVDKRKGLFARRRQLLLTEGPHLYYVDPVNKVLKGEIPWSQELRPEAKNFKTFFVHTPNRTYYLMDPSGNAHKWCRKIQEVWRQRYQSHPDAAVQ

Sequence of CSK (P41240 whole entry): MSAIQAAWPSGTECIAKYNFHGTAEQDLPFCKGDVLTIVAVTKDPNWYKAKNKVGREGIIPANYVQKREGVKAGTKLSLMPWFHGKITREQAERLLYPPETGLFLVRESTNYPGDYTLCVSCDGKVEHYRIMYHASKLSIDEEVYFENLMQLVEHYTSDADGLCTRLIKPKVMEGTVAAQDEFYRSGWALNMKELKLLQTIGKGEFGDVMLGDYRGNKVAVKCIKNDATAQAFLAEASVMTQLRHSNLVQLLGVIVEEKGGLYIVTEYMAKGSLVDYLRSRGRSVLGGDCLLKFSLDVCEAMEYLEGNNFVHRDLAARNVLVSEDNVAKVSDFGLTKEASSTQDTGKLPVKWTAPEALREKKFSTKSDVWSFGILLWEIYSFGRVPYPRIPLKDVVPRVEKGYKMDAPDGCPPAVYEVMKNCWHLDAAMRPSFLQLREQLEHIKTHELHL
Sequence of ABL1 T315I (P00519 whole entry T315I): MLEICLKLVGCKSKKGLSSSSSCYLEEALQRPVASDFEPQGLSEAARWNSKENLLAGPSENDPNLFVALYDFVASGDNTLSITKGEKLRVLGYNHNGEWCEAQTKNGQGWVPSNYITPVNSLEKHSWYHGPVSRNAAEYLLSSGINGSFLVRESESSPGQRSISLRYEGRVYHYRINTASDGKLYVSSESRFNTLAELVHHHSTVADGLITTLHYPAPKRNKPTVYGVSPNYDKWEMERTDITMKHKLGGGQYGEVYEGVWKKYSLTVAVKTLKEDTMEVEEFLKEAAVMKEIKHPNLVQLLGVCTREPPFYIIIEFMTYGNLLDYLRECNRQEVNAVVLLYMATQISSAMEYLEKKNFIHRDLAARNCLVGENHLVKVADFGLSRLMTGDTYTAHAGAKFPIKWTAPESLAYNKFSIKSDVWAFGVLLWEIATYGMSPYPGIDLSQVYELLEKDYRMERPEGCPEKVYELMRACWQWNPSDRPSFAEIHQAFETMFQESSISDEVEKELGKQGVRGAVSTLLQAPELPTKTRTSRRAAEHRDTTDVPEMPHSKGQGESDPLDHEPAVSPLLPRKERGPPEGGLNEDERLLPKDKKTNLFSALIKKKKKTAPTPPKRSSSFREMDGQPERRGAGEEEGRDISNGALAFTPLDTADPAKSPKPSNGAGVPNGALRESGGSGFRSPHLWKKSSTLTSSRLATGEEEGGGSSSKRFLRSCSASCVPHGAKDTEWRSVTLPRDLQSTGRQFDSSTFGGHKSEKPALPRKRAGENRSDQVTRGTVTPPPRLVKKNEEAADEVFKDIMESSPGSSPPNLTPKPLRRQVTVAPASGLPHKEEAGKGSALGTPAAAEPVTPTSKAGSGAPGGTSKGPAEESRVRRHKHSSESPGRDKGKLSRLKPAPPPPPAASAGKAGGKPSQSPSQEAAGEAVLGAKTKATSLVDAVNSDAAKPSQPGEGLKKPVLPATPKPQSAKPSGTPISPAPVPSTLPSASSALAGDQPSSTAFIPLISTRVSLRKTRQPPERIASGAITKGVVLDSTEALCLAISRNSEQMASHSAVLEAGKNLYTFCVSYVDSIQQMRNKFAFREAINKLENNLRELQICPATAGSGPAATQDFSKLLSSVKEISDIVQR
Sequence of CAMK2A (CaMKII alpha) (Q9UQM7 whole entry): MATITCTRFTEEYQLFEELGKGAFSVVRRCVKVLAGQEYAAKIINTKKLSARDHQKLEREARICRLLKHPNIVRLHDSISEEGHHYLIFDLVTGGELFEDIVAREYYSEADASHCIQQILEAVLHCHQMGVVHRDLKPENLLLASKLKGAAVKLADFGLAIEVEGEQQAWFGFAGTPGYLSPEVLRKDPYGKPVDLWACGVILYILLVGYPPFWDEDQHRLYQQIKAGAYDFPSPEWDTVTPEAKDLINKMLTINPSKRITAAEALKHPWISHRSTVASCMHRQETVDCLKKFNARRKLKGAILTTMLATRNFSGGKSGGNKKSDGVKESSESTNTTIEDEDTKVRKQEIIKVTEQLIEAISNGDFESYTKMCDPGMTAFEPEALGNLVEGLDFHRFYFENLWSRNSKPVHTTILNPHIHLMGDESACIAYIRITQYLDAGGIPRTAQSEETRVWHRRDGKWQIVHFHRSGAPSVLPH
Sequence of RPS6KA3 (RSK2) Ribosomal protein S6 kinase, 90 kDa, polypeptide 3 (P51812 whole entry): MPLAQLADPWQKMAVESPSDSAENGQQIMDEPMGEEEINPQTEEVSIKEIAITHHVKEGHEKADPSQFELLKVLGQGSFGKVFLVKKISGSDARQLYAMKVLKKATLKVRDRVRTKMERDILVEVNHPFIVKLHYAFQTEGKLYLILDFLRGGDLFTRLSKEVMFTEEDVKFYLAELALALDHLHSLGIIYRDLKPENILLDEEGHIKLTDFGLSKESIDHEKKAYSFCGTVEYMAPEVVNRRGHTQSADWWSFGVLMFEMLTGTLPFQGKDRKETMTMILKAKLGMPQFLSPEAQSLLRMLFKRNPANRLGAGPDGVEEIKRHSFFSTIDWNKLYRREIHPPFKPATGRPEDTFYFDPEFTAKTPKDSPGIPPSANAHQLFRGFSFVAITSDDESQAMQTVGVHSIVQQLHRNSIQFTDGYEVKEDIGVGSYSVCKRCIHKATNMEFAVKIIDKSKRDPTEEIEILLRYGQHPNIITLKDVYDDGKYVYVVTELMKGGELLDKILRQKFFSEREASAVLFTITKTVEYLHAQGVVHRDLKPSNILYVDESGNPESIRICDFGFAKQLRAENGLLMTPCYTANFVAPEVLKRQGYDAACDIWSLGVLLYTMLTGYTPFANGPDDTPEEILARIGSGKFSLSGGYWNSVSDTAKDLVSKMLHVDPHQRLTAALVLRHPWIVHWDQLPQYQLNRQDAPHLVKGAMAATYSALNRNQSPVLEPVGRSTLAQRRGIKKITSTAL
Sequence of PLK1 Polo-like kinase 1 (P53350 whole entry): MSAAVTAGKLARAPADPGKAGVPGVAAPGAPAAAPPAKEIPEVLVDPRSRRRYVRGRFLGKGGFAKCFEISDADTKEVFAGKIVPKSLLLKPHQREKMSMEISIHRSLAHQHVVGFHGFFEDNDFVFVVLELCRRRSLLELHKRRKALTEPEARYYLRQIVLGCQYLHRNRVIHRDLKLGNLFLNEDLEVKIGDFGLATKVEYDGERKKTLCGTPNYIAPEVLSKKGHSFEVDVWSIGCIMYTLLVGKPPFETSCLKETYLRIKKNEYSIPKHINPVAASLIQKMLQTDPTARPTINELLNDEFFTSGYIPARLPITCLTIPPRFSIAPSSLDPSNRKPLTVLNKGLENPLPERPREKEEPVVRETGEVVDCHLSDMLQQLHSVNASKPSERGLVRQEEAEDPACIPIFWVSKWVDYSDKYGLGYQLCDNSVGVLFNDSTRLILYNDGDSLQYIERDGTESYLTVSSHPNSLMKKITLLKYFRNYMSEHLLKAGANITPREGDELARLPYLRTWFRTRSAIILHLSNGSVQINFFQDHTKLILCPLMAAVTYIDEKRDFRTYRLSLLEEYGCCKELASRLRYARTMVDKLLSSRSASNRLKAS
Sequence of PIM1 Pim-1 oncogene (P11309 whole entry): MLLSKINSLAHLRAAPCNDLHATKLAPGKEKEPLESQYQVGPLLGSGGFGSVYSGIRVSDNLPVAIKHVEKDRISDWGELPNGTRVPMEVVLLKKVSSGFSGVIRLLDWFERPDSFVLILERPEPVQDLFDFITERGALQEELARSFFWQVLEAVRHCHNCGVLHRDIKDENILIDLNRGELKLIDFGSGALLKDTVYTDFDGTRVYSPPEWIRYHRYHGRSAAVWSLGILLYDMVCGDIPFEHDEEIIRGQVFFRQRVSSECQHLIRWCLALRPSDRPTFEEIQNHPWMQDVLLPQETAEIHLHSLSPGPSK

On to SGRPPMIVWFNRPFLIAVSHTHGQTILFMAKVINPVGA [D3 peptide], for which the “% Inhibition mean” value with CSK was determined as 55.2%; in [1], 93%; with PLK1 Polo-like kinase 1, 51%; in [2], 96.8%; in test [3], 54%; in the test with PIM1 Pim-1 oncogene, 89%. For the same molecule, the “% Inhibition mean” value in the test with CAMK2A (CaMKII alpha) came to 82.6%; in test [4], 101%; with BRSK1 (SAD1), 83.5%; with PRKX it was 100%; with ABL1 T315I, 69.8%; in test [5], 99.6%. Besides, the “D3 at 0.1 µM % activity” value with PDK1 is 98%. Also, in the test with PDK1, the “D3 at 1 µm % activity” value stood at 108%.

The record behind these values is patent publication US20100184658A1 (published 2010).
